Consider 3 molecules from patent US20240352087A1.

What is called IC50 is the concentration that inhibits the measured activity by half. Read a high IC50 as lower potency.

Experiment [1] deals with T1, HLA-A*02:01 (human), P04439.
T1 chain: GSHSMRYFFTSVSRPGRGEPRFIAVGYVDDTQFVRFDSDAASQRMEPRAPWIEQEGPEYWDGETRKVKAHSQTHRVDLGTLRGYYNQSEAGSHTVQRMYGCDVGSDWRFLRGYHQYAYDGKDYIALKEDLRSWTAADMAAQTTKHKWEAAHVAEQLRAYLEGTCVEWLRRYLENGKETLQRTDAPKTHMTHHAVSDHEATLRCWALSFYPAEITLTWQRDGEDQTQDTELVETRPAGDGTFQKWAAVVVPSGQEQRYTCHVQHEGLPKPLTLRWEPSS
Kind of experiment: HLA-binding assay. The conditions noted are these: chains peptide; modification not given.

Experiment [2] concerns the target T2, HLA-A*01:01 (human), P04439.
T2 chain: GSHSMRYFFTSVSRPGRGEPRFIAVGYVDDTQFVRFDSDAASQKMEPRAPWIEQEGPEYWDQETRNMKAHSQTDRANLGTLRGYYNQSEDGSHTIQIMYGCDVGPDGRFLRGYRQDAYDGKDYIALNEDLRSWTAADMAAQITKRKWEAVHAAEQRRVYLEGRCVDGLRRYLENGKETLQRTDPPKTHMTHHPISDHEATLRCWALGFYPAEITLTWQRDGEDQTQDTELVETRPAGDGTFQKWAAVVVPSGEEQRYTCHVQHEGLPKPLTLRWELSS
Kind of experiment: HLA-binding assay. The conditions noted are these: chains peptide; modification not given.

VLLLWITAA [HPV E5 46-54 peptide …] displayed an IC50 in experiment [1] of 11 nM. KSAIVTLTY [HPV E2 329-337 peptide …]: the IC50 in experiment [2] is 11 nM.

QVDYYGLYY [HPV E2 151-159 peptide …]: the IC50 in experiment [2] was found to be 18 nM.
